According to the RNAGym collection of RNA variant scans (doi:10.7554/elife.90254):

B1: OR4K15 (parent)
chain: GUUAACGGUCAUAGGCCAUGGAAACUAGGAGCACCAUUUCGCUGCCAGUGAAGAAAUGAACAAAGAAAAUCUGGGCCAGGCAGGCAUCAAAAGAAAUAGUCUUGCGCUCAACCAGAAAGUCUGUAAUCAUUUUAAGGGUA

Variants of: B1
Assay: self-cleavage, relative activity (ratio to wild type); higher = more cleavage; in vitro, sequencing; the parent is a self-cleaving ribozyme

Row | Variant | self-cleavage
1 | U37G A51G | 1.31
2 | A90G U108C | 0.02
3 | A111G A125G | 0.01
4 | A33U C105U | 0.49
5 | A86G U100A | 0.41
6 | A96U A125G | 0.61
7 | G7A A24G | 1.4
8 | A22G G83A | 1.27
9 | A78U G119A | 0.39
10 | A96C A118G | 0.95
11 | A13C A135G | 1.04
12 | U39A A89G | 2.23
13 | U87G U127C | 0.22
14 | A5G U97A | 1.57
15 | A78G U102A | 0.11
16 | A22U U127C | 1.13
17 | C109U A135G | 0.38
18 | A114C U131C | 0.02
19 | C6U A18G | 0.91
20 | U72C A82G | 0.3
21 | U43A C128A | 0.8
22 | A59U A78G | 0.27
23 | A36U U108A | 0
24 | A69G C71A | 0.43

Row | Variant | self-cleavage
25 | A30G A98G | 0.76
26 | A36G U103C | 0.43
27 | A30U A89U | 1.55
28 | A52G C77A | 1.2
29 | A60U A64G | 0.65
30 | A4G A117U | 0.81
31 | U2C G75U | 0.27
32 | A27G A63U | 1.83
33 | A82U A92U | 0.26
34 | C17U A135G | 1.05
35 | C16U U38C | 0.76
36 | G31C A55U | 1.76
37 | A125C | 0.46
38 | A11G A51U | 0.82
39 | A30G C128U | 1.78
40 | A22U A64G | 1.62
41 | U2C A66C | 0.66
42 | A69G U122C | 0.43
43 | U57G C81U | 0.29
44 | A98G U103C | 0.05
45 | A24G U130C | 1.38
46 | U43C A96C | 1
47 | A47U A110G | 0.05
48 | U2A | 0.8

Row | Variant | self-cleavage
49 | C121A A140G | 1.61
50 | A114G G115U | 0.02
51 | U2G A140G | 1.09
52 | A82G C112U | 0
53 | A51G A69G | 1.24
54 | U43C U72A | 0.4
55 | G1A C40U | 1.78
56 | G29A A134G | 0.51
57 | A24G C85U | 0.95
58 | U37C G79U | 0.12
59 | A51G A140G | 1.62
60 | C77U A126G | 1.49
61 | A11G A98G | 0.33
62 | A36U A56U | 1.12
63 | C46A A56G | 1.81
64 | U127C G136A | 0.59
65 | U26C A135U | 0.57
66 | A116G U122A | 0.5
67 | U3C A18U | 0.78
68 | U39C G41A | 2
69 | U70C A92G | 0.82
70 | U43C A98U | 1.68
71 | U3C A98C | 1.18
72 | U12A A55G | 1.3

Row | Variant | self-cleavage
73 | A126G U131C | 1.14
74 | A63G A126U | 0.57
75 | U120C U132A | 1.42
76 | A54G A67G | 1.57
77 | A24C A82G | 0.62
78 | U49A A52G | 0.96
79 | C85U A90C | 1.2
80 | A30U A59U | 1.6
81 | G80C | 0.07
82 | G80A | 0.24
83 | A11U A36U | 0.78
84 | U3C G7A | 0.99
85 | A63G A116U | 0.57
86 | U9C A86U | 1.74
87 | A23G C77U | 2.07
88 | A27U A56G | 1.21
89 | A36G G75A | 0.09
90 | A11U A126G | 0.81
91 | A47U A89U | 0.95
92 | A78U U133C | 0.37
93 | A24G U87C | 1.18
94 | A55G G123A | 1.61
95 | A62G A129U | 0.89
96 | U37C U131C | 1.15

Row | Variant | self-cleavage
97 | A60C G65A | 0.54
98 | A36G G136A | 1.79
99 | A60G A69G | 0.19
100 | G20A A59U | 0.83
101 | A82G A111C | 0.01
102 | A91G A126G | 0.55
103 | U70C A125U | 1.06
104 | A4G G14U | 0.67
105 | G31U A82U | 0.27
106 | U39C A96C | 0.78
107 | U49G U72A | 0.32
108 | C25U A92G | 0.6
109 | A33G A63U | 0.76
110 | A91G A118C | 0.47
111 | A94G A116G | 0.39
112 | A96C U100C | 2.01
113 | U39A U43C | 1.95
114 | U72G U87C | 0.31
115 | A67G G99U | 0.62
116 | U39C U100C | 2.44
117 | A5U A54U | 1.7
118 | A54G A86G | 1.28
119 | U2C A95U | 0.99
120 | A47U G84A | 1.13

Row | Variant | self-cleavage
121 | C6U U37C | 1.08
122 | A5U U26C | 0.57
123 | U19C G115A | 0.03
124 | U70C C121U | 1.42
125 | U2G G93U | 1.01
126 | A56G A90U | 1.83
127 | G106A U130C | 0.01
128 | A30G A117G | 1.48
129 | A23G U102A | 0.82
130 | A22G U49A | 0.65
131 | A86U U132C | 1.71
132 | U57A A96C | 0.99
133 | G7C | 1.07
134 | A92G A135U | 2.03
135 | A47U U132G | 0.61
136 | A33U C101A | 0.35
137 | A13U A47U | 1.24
138 | U3C A140G | 0.65
139 | A4G A86U | 0.95
140 | A64U G123A | 2.31
141 | A47U A64G | 0.61
142 | U103G | 0.03
143 | U3C A66G | 1.45
144 | A90G A92G | 1.01

Row | Variant | self-cleavage
145 | A24G C88U | 0.95
146 | A24C | 1.29
147 | U9C U43A | 1.24
148 | U2C A22U | 1.51
149 | U72A A116G | 0.04
150 | U122C A140C | 1.25
151 | U100C U122G | 2.48
152 | A52G A129G | 1.3
153 | U120C U127A | 0.21
154 | A36G A59G | 1.75
155 | A51G A63G | 1.17
156 | A82U A94G | 0.26
157 | U87C A114U | 0.09
158 | A55G A68U | 1.2
159 | G14C A89G | 2.26
160 | A33G A118G | 0.49
161 | A68G A94U | 2.3
162 | A13U C107U | 0
163 | A22U C105U | 0.18
164 | G83U A135G | 0.56
165 | A66U U102C | 1.8
166 | A52G A55G | 0.97
167 | U57C A62U | 2.11
